Where a chain is given by its changes, count along the chain named. Names and notes keep the numbering of the source. Where two headings read alike, the source gives them in different places.
Columns and labels:
[1] = target: RB tumor suppressor (retinoblastoma protein), endogenous in infected human foreskin fibroblast (HFF) cells (UniProt P06400)
GS strain of HHV-6A = test: Efficacy against HHV-6A in HSB-2 cells with reduced serum; assay type: cell-based; conditions: for EC50: HSB2, HHV-6A in HSB-2 cells, read-out: EC50
Procedure: The activity of MBV was evaluated against the GS strain of HHV-6A in HSB-2 cells with reduced serum to slow the growth of lymphocytes.

[2] = target: T1, RB tumor suppressor (retinoblastoma protein), endogenous in infected human foreskin fibroblast (HFF) cells, P06400
T1 chain: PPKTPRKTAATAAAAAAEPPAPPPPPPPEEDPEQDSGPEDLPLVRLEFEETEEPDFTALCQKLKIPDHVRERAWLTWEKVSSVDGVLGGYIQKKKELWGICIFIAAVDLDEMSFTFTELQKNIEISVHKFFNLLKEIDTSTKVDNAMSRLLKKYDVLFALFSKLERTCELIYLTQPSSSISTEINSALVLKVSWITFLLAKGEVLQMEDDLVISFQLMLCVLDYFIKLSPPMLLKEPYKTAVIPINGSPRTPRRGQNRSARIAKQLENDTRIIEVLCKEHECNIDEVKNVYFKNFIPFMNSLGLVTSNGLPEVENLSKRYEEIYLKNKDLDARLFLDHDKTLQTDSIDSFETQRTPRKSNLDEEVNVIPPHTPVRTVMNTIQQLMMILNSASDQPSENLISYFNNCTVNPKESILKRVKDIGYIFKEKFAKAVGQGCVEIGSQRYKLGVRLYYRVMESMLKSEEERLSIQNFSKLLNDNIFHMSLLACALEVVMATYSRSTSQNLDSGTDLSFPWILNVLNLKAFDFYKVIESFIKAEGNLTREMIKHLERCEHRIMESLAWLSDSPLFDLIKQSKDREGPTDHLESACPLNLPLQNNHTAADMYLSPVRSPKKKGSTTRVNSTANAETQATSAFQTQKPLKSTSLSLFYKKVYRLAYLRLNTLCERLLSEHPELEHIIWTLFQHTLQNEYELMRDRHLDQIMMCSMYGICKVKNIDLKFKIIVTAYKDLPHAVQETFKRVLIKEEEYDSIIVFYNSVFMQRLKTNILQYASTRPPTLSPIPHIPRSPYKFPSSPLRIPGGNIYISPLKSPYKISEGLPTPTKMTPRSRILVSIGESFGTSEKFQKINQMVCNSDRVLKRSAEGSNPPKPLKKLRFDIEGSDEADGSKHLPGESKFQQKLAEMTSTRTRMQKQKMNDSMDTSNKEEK

[3] = target: T2, epitope tagged (V5) UL89 fusion protein (negative control) (UniProt P16732 1-674); test: pull-down of recombinant Rb by V5-immunoprecipitated protein on Protein A sepharose beads, immunoblot for Rb
T2 construct: Negative control in the Rb pull-down; also called pUL89
T2 sequence: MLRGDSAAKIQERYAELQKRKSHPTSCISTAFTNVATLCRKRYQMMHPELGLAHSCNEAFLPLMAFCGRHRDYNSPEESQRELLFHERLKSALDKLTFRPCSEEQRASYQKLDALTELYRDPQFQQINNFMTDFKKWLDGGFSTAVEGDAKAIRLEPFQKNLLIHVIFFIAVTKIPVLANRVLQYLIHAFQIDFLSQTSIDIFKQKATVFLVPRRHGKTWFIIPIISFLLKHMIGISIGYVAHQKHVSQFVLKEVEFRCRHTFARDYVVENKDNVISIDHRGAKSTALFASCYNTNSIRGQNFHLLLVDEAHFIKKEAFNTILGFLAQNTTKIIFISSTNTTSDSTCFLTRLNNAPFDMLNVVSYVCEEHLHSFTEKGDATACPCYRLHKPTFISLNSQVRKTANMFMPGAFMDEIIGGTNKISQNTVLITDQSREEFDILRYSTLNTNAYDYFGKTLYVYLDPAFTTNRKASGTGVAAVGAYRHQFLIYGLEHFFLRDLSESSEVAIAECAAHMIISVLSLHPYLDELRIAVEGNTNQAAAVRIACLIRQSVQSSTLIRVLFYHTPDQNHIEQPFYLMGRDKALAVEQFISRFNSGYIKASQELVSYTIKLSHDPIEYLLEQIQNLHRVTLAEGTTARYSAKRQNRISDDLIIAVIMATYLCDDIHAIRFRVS

[4] = target: T3, epitope tagged (V5) UL104 fusion protein (negative control) (UniProt P16735 1-697); test: as above
T3 construct: Negative control in the Rb pull-down; also called pUL104
T3 sequence: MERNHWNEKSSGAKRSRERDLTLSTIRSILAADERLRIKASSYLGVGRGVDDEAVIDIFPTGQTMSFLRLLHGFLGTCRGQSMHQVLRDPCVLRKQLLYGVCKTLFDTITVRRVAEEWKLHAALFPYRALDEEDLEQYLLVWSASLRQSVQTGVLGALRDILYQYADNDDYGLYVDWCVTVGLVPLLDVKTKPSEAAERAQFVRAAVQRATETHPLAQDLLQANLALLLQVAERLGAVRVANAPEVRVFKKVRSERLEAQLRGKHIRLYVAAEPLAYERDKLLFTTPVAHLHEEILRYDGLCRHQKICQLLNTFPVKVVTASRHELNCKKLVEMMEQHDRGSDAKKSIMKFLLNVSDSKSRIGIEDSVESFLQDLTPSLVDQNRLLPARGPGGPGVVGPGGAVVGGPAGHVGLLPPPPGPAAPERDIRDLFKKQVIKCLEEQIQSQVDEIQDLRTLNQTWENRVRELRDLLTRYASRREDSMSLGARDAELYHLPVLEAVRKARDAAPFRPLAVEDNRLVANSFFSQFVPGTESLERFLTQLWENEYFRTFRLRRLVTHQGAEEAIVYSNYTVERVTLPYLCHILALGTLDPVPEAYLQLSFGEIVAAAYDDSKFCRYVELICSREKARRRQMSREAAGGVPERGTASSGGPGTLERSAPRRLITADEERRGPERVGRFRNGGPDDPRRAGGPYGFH

pUL97 K355M of recombinant virus RC314
RB stabilization, western blot of lysates 24 hours after infection [1]: This did not occur when cells were infected with the K355M mutant
phosphorylation of RB on serine 780, western blot with specific antisera [1]: The phosphorylation of serine 780 was reduced in the K355M and C151G mutants relative to the wild-type virus and resembled levels seen in uninfected cells

Nc1ccn(C[C@@H](CO)OCP(=O)(O)O)c(=O)n1 [cidofovir]
EC50 values under conditions of reduced serum (GS strain of HHV-6A; GS strain of HHV-6A, HSB-2 cells, reduced serum): unaffected
EC50 (GS strain of HHV-6A; 2% FBS): 1.1 µM
EC50 (GS strain of HHV-6A; 5% FBS): 1.2 µM
EC50 (GS strain of HHV-6A; 10% FBS): 1.4 µM

B1: pUL97 of the wild-type virus HB5 (HCMV BAC strain) (protein)
chain: MSSALRSRARSASLGTTTQGWDPPPLRRPSRARRRQWMREAAQAAAQAAVQAAQAAAAQVAQAHVDENEVVDLMADEAGGGVTTLTTLSSVSTTTVLGHATFSACVRSDVMRDGEKEDAASDKENLRRPVVPSTSSRGSAASGDGYHGLRCRETSAMWSFEYDRDGDVTSVRRALFTGGSDPSDSVSGVRGGRKRPLRPPLVSLARTPLCRRRVGGVDAVLEENDVELRAESQDSAVASGPGRIPQPLSGSSGEESATAVEADSTSHDDVHCTCSNDQIITTSIRGLTCDPRMFLRLTHPELCELSISYLLVYVPKEDDFCHKICYAVDMSDESYRLGQGSFGEVWPLDRYRVVKVARKHSETVLTVWMSGLIRTRAAGEQQQPPSLVGTGVHRGLLTATGCCLLHNVTVHRRFHTDMFHHDQWKLACIDSYRRAFCTLADAIKFLNHQCRVCHFDITPMNVLIDVNPHNPSEIVRAALCDYSLSEPYPDYNERCVAVFQETGTARRIPNCSHRLRECYHPAFRPMPLQKLLICDPHARFPVAGLRRYCMSELSALGNVLGFCLMRLLDRRGLDEVRMGTEALLFKHAGAACRALENGKLTHCSDACLLILAAQMSYGACLLGEHGAALVSHTLRFVEAKMSSCRVRAFRRFYHECSQTMLHEYVRKNVERLLATSDGLYLYNAFRRTTSIICEEDLDGDCRQLFPE
RB stabilization, western blot of lysates 24 hours after infection [2]: Cells infected with the wild-type virus stabilized RB

B2: pUL97 C151G of recombinant virus RC295 (protein)
chain: B1 chain with C151G
RB accumulation, western blot of lysates 24 hours after infection [2]: The accumulation of RB was reduced in the C151G mutant
phosphorylation of RB on serine 780, western blot with specific antisera [2]: The phosphorylation of serine 780 was reduced in the K355M and C151G mutants relative to the wild-type virus and resembled levels seen in uninfected cells

B3: recombinant protein consisting of the carboxyl terminus of Rb fused to the maltose binding protein (Cell Signaling Technology) (other)
chain: DQIMMCSMYGICKVKNIDLKFKIIVTAYKDLPHAVQETFKRVLIKEEEYDSIIVFYNSVFMQRLKTNILQYASTRPPTLSPIPHIPRSPYKFPSSPLRIPGGNIYISPLKSPYKISEGLPTPTKMTPRSRILVSIGESFGTSEKFQKINQMVCNSDRVLKRSAEGSNPPKPLKKLRFDIEGSDEADGSKHLPGESKFQQKLAEMTSTRTRMQKQKMNDSMDTSNKEEK
notes: domain: carboxyl terminus; Bought fusion protein; also called recombinant Rb; recombinant Rb protein
binding result [3]: no binding
binding result [4]: no binding

From patent US20100143440A1, “UL97 INHIBITORS FOR TREATMENT OF PROLIFERATIVE DISORDERS” (The UAB Research Foundation, priority 2007, published 2010)
